Like-named read-outs stand apart in the source and are kept apart here. Square brackets hold non-standard residues; d marks the D form. Ends that are not written are not given here. PhLac = O=C(O)[C@@H](O)Cc1ccccc1

In assay [1] the target is T1, glucagon receptor (UniProt P47871 26-477, limits assumed). As to the kind of experiment: cell-based or functional assay.
Assay [2] deals with T1, glucagon receptor. As to the kind of experiment: cell-based or functional assay. This is another data set of the same source.
Assay [3] has as its target T1, glucagon receptor. As to the kind of experiment: receptor binding, method not described.
Assay [4] deals with T1, glucagon receptor. As to the kind of experiment: receptor binding, method not described. This is another data set of the same source.
In assay [5] the target is T1, glucagon receptor. As to the kind of experiment: cell-based or functional assay. The source holds these as a separate data set.
The target of assay [6] is T1, glucagon receptor. Description: receptor binding, method not described. The source holds these as a separate data set.
Assay [7] addresses T1, glucagon receptor. Description: receptor binding, method not described. This is another data set of the same source.
The target of assay [8] is T1, glucagon receptor. As to the kind of experiment: cell-based or functional assay. The source holds these as a separate data set.
In assay [9] the target is T1, glucagon receptor. As to the kind of experiment: receptor binding (named so for the same values in Table I), method not described.

T1 sequence (P47871 26-477 limits assumed): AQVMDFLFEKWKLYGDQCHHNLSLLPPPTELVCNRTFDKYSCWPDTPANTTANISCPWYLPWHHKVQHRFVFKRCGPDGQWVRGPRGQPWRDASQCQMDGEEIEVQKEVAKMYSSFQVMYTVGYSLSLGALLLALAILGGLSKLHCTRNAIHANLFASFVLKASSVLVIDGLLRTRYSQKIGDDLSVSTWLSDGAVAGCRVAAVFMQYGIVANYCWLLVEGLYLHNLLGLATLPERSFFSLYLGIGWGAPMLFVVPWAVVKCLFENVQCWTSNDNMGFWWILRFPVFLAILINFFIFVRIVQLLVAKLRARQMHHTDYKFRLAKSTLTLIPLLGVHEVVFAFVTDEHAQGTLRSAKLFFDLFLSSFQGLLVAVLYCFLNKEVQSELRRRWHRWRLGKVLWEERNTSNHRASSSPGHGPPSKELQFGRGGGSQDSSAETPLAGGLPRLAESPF

For GTFTSEYSKYLDSRRAQDFVQWLMNT-NH2 (also called peptide no) [[Glu^9]Glucagon(aa4-29)-NH2], the “cAMP Inhibition IC50” value in [1] stood at 128 nM. Moreover, the “cAMP pA2” value in assay [2] was 7.05.

The IC50 is the concentration at which inhibition is half-maximal. High values mean weaker potency in that assay, low ones greater potency in that assay. For the molecule [PhLac]TSEYSKYLDSRRAQDFVQWLMNT-NH2 [[PLA6, E9]Glucagon(aa6-29)-NH2], the concentration for half-maximal inhibition (IC50) in assay [3] and in assay [4] was 12.3 nM each time. The “IC50(nM) (cAMP, inhibit 0.8 mM Glucagon)” value in [5] stood at 64.8 nM.

B1: [Glu^9]Glucagon(aa6-29)-NH2 (peptide)
peptide: FTSEYSKYLDSRRAQDFVQWLMNT-NH2
notes: also called [E^9]Glucagon(aa6-29)-NH2; peptide no
As for B1, the “cAMP Inhibition IC50” value in [1] came out at 97 nM. For the same molecule, the IC50 worked out at 36.4 nM in [6], 36 nM in [7] and 36.4 nM in assay [9]. Also, the “cAMP (I/A)50” value in assay [2] turned out to be 486. Moreover, the “cAMP pA2” value in [2] and in assay [8] was 7.16 each time. The “cAMP IC50” value in [8] was 97.2 nM.

The values above are taken from patent US20120322725A1 (INDIANA UNIVERSITY RESEARCH AND TECHNOLOGY, published 2012).
